The results in this text go back to patent US20080311122A1, “Antagonists of Hmgb1 and/or Rage and Methods of Use Thereof” (Medimmune, LLC, priority 2005, published 2008).

One series addresses T1, HMG2 (Bos taurus, UniProt P40673).
T1 construct: from tissue; host or cells: calf thymus (as read from the sentence)
T1 sequence (P40673 1-209): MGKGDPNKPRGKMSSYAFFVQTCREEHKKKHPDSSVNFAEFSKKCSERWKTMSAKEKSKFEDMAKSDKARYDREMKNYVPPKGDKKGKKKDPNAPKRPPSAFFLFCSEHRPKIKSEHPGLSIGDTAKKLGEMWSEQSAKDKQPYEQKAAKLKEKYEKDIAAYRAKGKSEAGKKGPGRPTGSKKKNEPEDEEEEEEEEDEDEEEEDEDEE
The experiment in a line: Binding to HMG1 vs. HMG2 ELISA. To be noted: immobilized antigen. More on the design: species or system calf. On the procedure:
Binding to HMG1 vs. HMG2: Ultra high-binding ELISA plates (ThermoLab systems, #3855) were coated with either 5 ug/mL of Calf thymus HMGB1 or HMBG2 diluted in 10 mM Phosphate buffered saline (PBS), pH 7.2 and incubate overnight at 4 degrees. The plates were washed twice with Ca and Mg free PBS and 100 microliters of anti-HMGB1 antibody diluted in 10 mM PBS, pH 7.2+1% bovine serum albumin (BSA) to a final concentration of 10 ug/mL was added to each well and the plates were incubated 1 hour at room temperature. The wells were washed three times with 100 μl of PBS, pH 7.2. HRP labeled goat-anti-human IgG Kappa-chain (KPL, #14-10-10) and goat-anti-human IgG Lambda-chain (KPL, #14-10-11) were diluted in 10 mM PBS+1% BSA 1:1000 and 100 μl were added to each well and incubated for 1 hour at room temperature. The wells were then washed three times with 100 μl of PBS, pH 7.2. OPD substrate (Pierce chemical company, #34006) was prepared following the manufacturers instructions and 100 μl of prepared substrate was added to each well and the plates incubated at room temperature in the dark for 20-30 minutes. The reaction was stopped with the addition of 100 μl of 2M H2SO4, and the plates read on a plate reader at a wavelength of 490 nm.
For orientation: An ELISA detects its analyte on a solid surface through an enzyme-linked reagent.

Series [1] can be described thus: Differential scanning calorimetry. In kind it is physicochemical. Further details: unit: °C. Particulars: in °C (unit assumed). The method, then:
Differential Scanning Calorimetry: Thermal melting temperatures (Tm) were measured with a VP-DSC (MicroCal, LLC) using a scan rate of 1.0° C./min and a temperature range of 25-120° C. A filter period of 8 seconds was used along with a 5 minute pre-scan thermostating. Samples were prepared by dialysis into 25 mM Histidine-HCl, pH 6 using Pierce dialysis cups (3.5 kD). Average Mab concentrations were 50 μg/mL as determined by A280. Melting temperatures were determined following manufacturer procedures using Origin software supplied with the system. Briefly, multiple baselines were run with buffer in both the sample and reference cell to establish thermal equilibrium. After the baseline was subtracted from the sample thermogram, the data were concentration normalized and fitted using the deconvolution function.
On the technique in general: DSC measures the heat that a sample takes up or gives off during a temperature scan.

A short description of series [2]: Isoelectric focusing gel electrophoresis. In kind it is physicochemical. On the procedure:
Isoelectric Focusing Gel Electrophoresis: Isoelectric points were determined using a Pharmacia Biotech Multiphor 2 electrophoresis system with a multi temp 3 refrigerated bath recirculation unit and an EPS 3501 XL power supply. Pre-cast ampholine gels (Amersham Biosciences, pI range 2.5-10) were loaded with 5 μg of protein. Broad range pI marker standards (Amersham, pI range 3-10, 8 μL) were used to determine relative pI for the Mabs. Electrophoresis was performed at 1500 V, 50 mA for 105 minutes. The gel was fixed using a Sigma fixing solution (5×) diluted with purified water to 1×. Staining was performed overnight at room temperature using Simply Blue stain (Invitrogen). Destaining was carried out with a solution that consisted of 25% ethanol, 8% acetic acid and 67% purified water. Isoelectric points were determined using a Bio-Rad Densitometer relative to calibration curves of the standards.

B1: G35: human anti-HMG1 antibody; VL/VH aa SEQ ID NO: 54/56 (antibody, listed as Homo sapiens, V domains shown)
VH: EVQLLESGGGLVQPGGSLRLSCAASGFTFSWYKMVWVRQAPGKGLEWVSSIVPSGGITIYADSVKGRFTISRDNSKNTLYLQMNSLRAEDTAVYYCARVQQWLGRPYFDYWGQGTLVTVSS
VL: AQDIQMTQSPLSLPVTPGEPASISCRSSQSLLHGNGYNYLDWYLQRPGQSPQLLIYSGSNRASGVPDRFSGSGSGTDFTLKISRVEAEDVGVYYCMQSLQSRTFGQGTKVEIK
Regarding B1, in the series with HMG2, the “relative binding to HMG1 and HMG2” value is on record as “specific for HMG1”. In addition, the Tm in series [1] came to 69. Also, in series [2], the PI was determined as 8.61.
